{
  "source": "paper PMC5722371",
  "key": {"[1]": {"target": "Neisseria meningitides DMP19 (DNA mimic protein 19 kDa), tag free (Neisseria meningitides)", "test": "SEC; Superose 12, 20 mM Tris pH 7.4, 100 mM NaCl; 750 μM HU-His6 or 1500 μM tag-free DMP19 alone, or both together; MW from Kav against four standards"}, "[2]": {"target": "HU (Haemophilus influenzae) (UniProt P43722)", "test": "ITC", "settings": "cited from earlier work"}, "[3]": {"target": "C-terminal His6-tagged Neisseria HU (not stated (Neisseria))", "test": "SEC; Superose 12, 20 mM Tris pH 7.4, 100 mM NaCl; 750 μM HU-His6 or 1500 μM tag-free DMP19 alone, or both together; MW from Kav against four standards"}, "[4]": {"target": "Neisseria meningitides DMP19 (DNA mimic protein 19 kDa), tag free (Neisseria meningitides)", "test": "ITC; ITC200, 300 μM HU-His6 dimer in the syringe into 30 μM DMP19 monomer in the cell, 20 mM Tris pH 7.4, 50 mM NaCl, 25°C, 20 injections of 2 μl"}, "[5]": {"target": "Neisseria meningitides DMP19 (DNA mimic protein 19 kDa), tag free (Neisseria meningitides)", "test": "ITC; ITC200, 300 μM HU-His6 dimer in the syringe into 30 μM DMP19 monomer in the cell, 20 mM Tris pH 7.4, 50 mM NaCl, 25°C, 20 injections of 2 μl", "remark": "listed apart in the source"}},
  "note": "Values joined by “and” are separate entries in the source; they are usually repeats but may differ in a detail not shown here. Identical values can stand only once. Like-named read-outs stand apart in the source and are kept apart here.",
  "data": [
    {"substance": "Neisseria meningitides DMP19 (DNA mimic protein 19 kDa), tag free (natural protein)", "values": [
      {"measurement": "stoichiometry N", "setting": "[1]", "value": 2}
    ]},
    {"substance": "HI1450 (from UniProt P44199)", "values": [
      {"measurement": "Kd", "setting": "[2]", "value": 3000, "unit": "nM"}
    ]},
    {"substance": "C-terminal His6-tagged Neisseria HU (natural protein)", "values": [
      {"measurement": "stoichiometry N", "setting": "[3]", "value": 2},
      {"measurement": "Kd", "setting": "[4]", "value": 500, "unit": "nM"},
      {"measurement": "Kd", "setting": "[5]", "value": "380 nM and 490 nM and 640 nM"}
    ]}
  ]
}
